Measurements: patent US20250295798A1 (BEIGENE SWITZERLAND, published 2025)
Values belong to the binder of their own block, whether it stands above or below them.

How the values were obtained:
[1] = target: T1, human HER3 (native, on A375 cells) (human, UniProt P21860 20-1342); assay: flow cytometry (FACS) on A375 cells, anti-human IgG Alexa Fluor 647 detection, 4-parameter fit
T1 construct: whole, on cells; also called native Her3; human native Her3
Experimental: Cell fluorescence was quantified using a flow cytometer (Guava easyCyte 8HT, Merck-Millipore, USA). EC50 values for dose-dependent binding to human native Her3 were determined by fitting the dose-response data to the four-parameter logistic model with GraphPad Prism.

hHER3-his = target: T2, hHER3-his (human, UniProt P21860 20-643); assay: SPR (BIAcore 8K), mAb captured by anti-human Fc, Her3-his as analyte, 1:1 Langmuir fit, 25 C
T2 construct: Bought reagent; also called Her3-his (cat10201-H08H, SinoBiological); not shown: his tag
Experimental: Binding kinetics of the mAbs to the target was determined by SPR on a BIAcore 8K (GE Healthcare). The running buffer, 10 mM HEPES, 150 mM NaCl, 0.05% v/v Surfactant P20, 3 mM EDTA, pH 7.4 (HBS-EP+, GE Healthcare) was used for immobilization and reagent dilutions. All binding kinetics were measured at 25° C. For each injection cycle, mAbs were first captured in different flow cells with an anti-human Fc antibody (Human Antibody Capture Kit, GE Healthcare) immobilized to the sensor chip (Series S CM5, GE Healthcare). Reference flow cell with no captured mAb was also used. Serial dilutions of Her3-his(cat10201-H08H, SinoBiological), and buffer blanks were injected in multiple cycles over the captured mAbs and reference surfaces for association followed by dissociation. The surfaces were regenerated with an injection of 3 M MgCl2 after each cycle. Double-referenced titration data was globally fit to a 1:1 Langmuir binding model to determine the association rate constant, ka (M−1 s−1), and the dissociation rate constant, kd (s−1), using the BIAcore Insight Evaluation Software version 2.0 (GE Healthcare). The equilibrium dissociation constant was calculated as KD(M)=kd/ka.

EC50 [1]: 0.59 nM | Kd (hHER3-his): 1.51 nM
B1: Patritumab (antibody, V domains shown)
VH: QVQLQQWGAGLLKPSETLSLTCAVYGGSFSGYYWSWIRQPPGKGLEWIGEINHSGSTNYNPSLKSRVTISVETSKNQFSLKLSSVTAADTAVYYCARDKWTWYFDLWGRGTLVTVSS
VL: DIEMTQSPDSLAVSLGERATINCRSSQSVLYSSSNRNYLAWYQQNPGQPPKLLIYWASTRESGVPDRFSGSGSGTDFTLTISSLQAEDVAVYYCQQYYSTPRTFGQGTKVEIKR

EC50 [1]: 0.83 nM | Kd (hHER3-his): 2.52 nM
B2: mAb10 (antibody, V domains shown)
VH: EVQLLESGGGLVQPGGSLRLSCAVSGGSFSGYYWSWIRQAPGKGLEWIGEINHSGSTNYNPSLKSRFTISVDNSKNTFYLQMNSLRAEDTAVYYCARDKWTWYFDLWGRGTLVTVSS
VL: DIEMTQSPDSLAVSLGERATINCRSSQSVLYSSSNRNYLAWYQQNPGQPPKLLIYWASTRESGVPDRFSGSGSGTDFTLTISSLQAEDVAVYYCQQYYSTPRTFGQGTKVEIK
notes: Produced from heavy chain and kappa chain plasmids in CHO cells
